From US7314709B2, “Compositions and methods for detecting and quantifying COX-2 activity by lipoamino acid metabolism” (Vanderbilt University, priority 2002, dated 2008)

Experiments:
ovine COX-1 (oCOX-1) = molecular target: T1, ovine COX-1 (oCOX-1) (Ovis aries, UniProt P05979); details: compared with AA; cited from earlier work
T1 construct: COX-1 was purified from ram seminal vesicles as previously described; tissue Oxford Biomedical Research; host or cells: ram seminal vesicles
T1 sequence (P05979 25-600): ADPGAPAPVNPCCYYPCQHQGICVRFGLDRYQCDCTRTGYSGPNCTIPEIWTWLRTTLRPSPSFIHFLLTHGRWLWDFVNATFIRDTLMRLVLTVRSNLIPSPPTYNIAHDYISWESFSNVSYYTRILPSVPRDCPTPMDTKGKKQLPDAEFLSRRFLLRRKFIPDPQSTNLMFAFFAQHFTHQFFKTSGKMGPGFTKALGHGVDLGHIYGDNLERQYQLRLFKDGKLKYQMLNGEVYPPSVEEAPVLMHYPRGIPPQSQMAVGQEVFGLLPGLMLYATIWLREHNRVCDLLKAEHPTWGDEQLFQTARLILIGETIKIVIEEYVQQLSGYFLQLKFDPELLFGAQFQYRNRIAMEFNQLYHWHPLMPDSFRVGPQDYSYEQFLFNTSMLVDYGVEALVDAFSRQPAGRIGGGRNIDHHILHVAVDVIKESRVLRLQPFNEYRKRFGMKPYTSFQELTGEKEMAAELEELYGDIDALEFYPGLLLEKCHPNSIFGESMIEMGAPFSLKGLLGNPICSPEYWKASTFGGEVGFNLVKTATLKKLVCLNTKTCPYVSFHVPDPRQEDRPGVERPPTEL

[1] = rats [16,17]; cited from earlier work
[2] = mice [16,17]; cited from earlier work
[3] = substrate: CCCCC/C=C\C/C=C\C/C=C\C/C=C\CCCCNCC(=O)O; assay: Steady-state kinetics of COX-2 mediated oxygenation (oxygraph O2 uptake); format: biochemical, murine; details: other: 50 nM COX-2, 100 mM Tris-HCl, 500 μM phenol
Procedure: (§1) Enzymology: COX-1 was purified from ram seminal vesicles as previously described. Site-directed mutagenesis of COX-2 was performed as described previously. Recombinant COX-2 enzymes were expressed in Sf-9 insect cells and purified by ion-exchange chromatography and gel filtration as previously described. Apo-enzymes were reconstituted with hematin prior to activity assays. […] COX activity was quantified as previously described. Initial reaction velocity data were obtained from the linear portion of the oxygen uptake curves. Oxygraph data were analyzed by nonlinear regression with Enzyme Kinetics 1.5 software (Trinity Software, Campton, N.H.).

[4] = substrate: CCCCC/C=C\C/C=C\C/C=C\C/C=C\CCCC(=O)O; assay: as above; format: biochemical, murine; details: other: 50 nM COX-2, 100 mM Tris-HCl, 500 μM phenol
Procedure: as §1

CCCCC/C=C\C/C=C\C/C=C\C/C=C\CCCC(=O)NCCO [AEA, arachidonyl ethanolamide]
metabolism by COX-1 (ovine COX-1 (oCOX-1)): much lesser extent than AA

CCCCC/C=C\C/C=C\C/C=C\C/C=C\CCCC(=O)NCCCC(=O)O [δ-arachidonyl aminobutuyic acid]
formalin-induced tonic inflammatory pain [1]: suppresses formalin-induced tonic inflammatory pain | analgesia [2]: induce analgesia

CCCCC/C=C\C/C=C\C/C=C\C/C=C\CCCC(=O)OC(CO)CO [2-AG, 2-arachidonlyglycerol]
metabolism by COX-1 (ovine COX-1 (oCOX-1)): much lesser extent than AA

B1: Murine COX-2 (Mus musculus) (protein)
chain: ANPCCSNPCQNRGECMSTGFDQYKCDCTRTGFYGENCTTPEFLTRIKLLLKPTPNTVHYILTHFKGVWNIVNNIPFLRSLIMKYVLTSRSYLIDSPPTYNVHYGYKSWEAFSNLSYYTRALPPVADDCPTPMGVKGNKELPDSKEVLEKVLLRREFIPDPQGSNMMFAFFAQHFTHQFFKTDHKRGPGFTRGLGHGVDLNHIYGETLDRQHKLRLFKDGKLKYQVIGGEVYPPTVKDTQVEMIYPPHIPENLQFAVGQEVFGLVPGLMMYATIWLREHNRVCDILKQEHPEWGDEQLFQTSRLILIGETIKIVIEDYVQHLSGYHFKLKFDPELLFNQQFQYQNRIASEFNTLYHWHPLLPDTFNIEDQEYSFKQFLYNNSILLEHGLTQFVESFTRQIAGRVAGGRNVPIAVQAVAKASIDQSREMKYQSLNEYRKRFSLKPYTSFEELTGEKEMAAELKALYSDIDVMELYPALLVEKPRPDAIFGETMVELGAPFSLKGLMGNPICSPQYWKPSTFGGEVGFKIINTASIQSLICNNVKGCPFTSFNVQDPQPTKTATINASASHSRLDDINPTVLIKRRSTEL
notes: made in house; host or cells: Sf-9 insect cells
Km [3]: 11.7 ± 1.4 µM | kcat [3]: 6.3 ± 1.1 s⁻¹ | kcat/Km [3]: 540000 M⁻¹ s⁻¹ | Km [4]: 3.3 ± 1.0 µM | kcat [4]: 16.6 ± 1.7 s⁻¹ | kcat/Km [4]: 5.08e+06 M⁻¹ s⁻¹
